Experimental findings from PMC10760178 are described below.

Broadly, the Kd is the constant that tells how readily two partners part at equilibrium. Read a high Kd as a looser complex.

For the assay, the target named is Catabolite Repressor Activator protein (Cra), wild-type, untagged (E. coli) (UniProt P0ACP1). Briefly: BLI.
Sequence of UniProt P0ACP1 (P0ACP1 whole entry): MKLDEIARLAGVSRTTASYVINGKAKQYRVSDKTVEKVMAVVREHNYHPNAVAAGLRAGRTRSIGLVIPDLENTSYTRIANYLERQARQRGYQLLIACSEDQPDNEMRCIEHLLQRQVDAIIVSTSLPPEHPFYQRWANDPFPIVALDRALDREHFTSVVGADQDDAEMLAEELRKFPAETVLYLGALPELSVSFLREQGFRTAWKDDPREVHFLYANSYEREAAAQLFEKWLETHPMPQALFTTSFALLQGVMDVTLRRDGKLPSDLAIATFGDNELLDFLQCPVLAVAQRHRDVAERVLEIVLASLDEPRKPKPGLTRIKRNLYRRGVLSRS

On to “His-tagged FruK (pET3a) for BLI (from UniProt P0AEW9 1-312) (enzyme)”, for which the Kd was 2.1 nM.
